# Reference: IntAct's records for PubMed 20346719
# B1: Flagellar brake protein YcgR (Escherichia coli (strain K12)), P76010 (parent)
# chain: MSHYHEQFLKQNPLAVLGVLRDLHKAAIPLRLSWNGGQLISKLLAITPDKLVLDFGSQAEDNIAVLKAQHITITAETQGAKVEFTVEQLQQSEYLQLPAFITVPPPTLWFVQRRRYFRISAPLHPPYFCQTKLADNSTLRFRLYDLSLGGMGALLETAKPAELQEGMRFAQIEVNMGQWGVFHFDAQLISISERKVIDGKNETITTPRLSFRFLNVSPTVERQLQRIIFSLEREAREKADKVRD
# partner: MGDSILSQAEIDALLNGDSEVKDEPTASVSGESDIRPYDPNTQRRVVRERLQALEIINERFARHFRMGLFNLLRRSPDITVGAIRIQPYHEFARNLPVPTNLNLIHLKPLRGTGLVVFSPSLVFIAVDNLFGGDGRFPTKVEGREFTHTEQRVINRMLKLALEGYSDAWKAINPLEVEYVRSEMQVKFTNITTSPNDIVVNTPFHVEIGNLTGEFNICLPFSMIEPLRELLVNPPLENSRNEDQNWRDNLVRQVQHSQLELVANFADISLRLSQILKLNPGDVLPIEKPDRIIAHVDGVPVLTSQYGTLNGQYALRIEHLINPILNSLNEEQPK
# B2: Flagellar brake protein YcgR (Escherichia coli (strain K12)), P76010 (parent)
# chain: B1 chain
# partner: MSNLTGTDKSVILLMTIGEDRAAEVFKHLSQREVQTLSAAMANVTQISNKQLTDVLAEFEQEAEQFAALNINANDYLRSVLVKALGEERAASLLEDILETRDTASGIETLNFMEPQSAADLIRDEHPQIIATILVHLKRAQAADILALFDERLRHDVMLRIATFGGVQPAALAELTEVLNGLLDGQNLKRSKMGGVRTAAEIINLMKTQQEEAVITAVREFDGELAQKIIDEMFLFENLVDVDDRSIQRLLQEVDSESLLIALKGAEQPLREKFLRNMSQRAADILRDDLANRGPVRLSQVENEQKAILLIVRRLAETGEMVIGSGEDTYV
# B3: Flagellar motor switch protein FliG (Escherichia coli (strain K12)), P0ABZ1 (parent)
# chain: B2 partner
# partner: B1 chain
# B4: Flagellar motor switch protein FliM (Escherichia coli (strain K12)), P06974 (parent)
# chain: B1 partner
# partner: B1 chain
# Variants of: B1
# Conditions: with flim_ecoli fliM
row,Variant,effect of a mutation on the interaction
1,MSHYHEQFLKQNPLAVLGVLRDLHKAAIPLRLSWNGGQLISKLLAITPDKLVLDFGSQAEDNIAVLKAQHITITAETQGAKVEFTVEQLQQSEYLQLPAFITVPPPTLWFVQRRRYFRISAPLHPPYFCQTKLADNSTLRFRLYDLSLGGMGALLETAKPAELQEGMRFAQIEVNMGQWGVFHFDAQLISISERKVIDGKNETITTPRLSFRFLNVSPTVERQLQRWIFSLEREAREKADKVRD [I227W],disrupting interaction
2,MSHYHEQFLKQNPLAVLGVLRDLHKAAIPLRLSWNGGQLISKLLAITPDKLVLDFGSQAEDNIAVLKAQHITITAETQGAKVEFTVEQLQQSEYLQLPAFITVPPPTLWFVQRRRYFRISAPLHPPYFCQTKLADNSTLRFRLYDLSLGGMGALLETAKPAELQEGMRFAQIEVNMGQWGVFHFDAQLISISERKVIDGKNETITTPRLSFRFLNVSPTVERPLQRIIFSLEREAREKADKVRD [Q223P],disrupting interaction

# Variants of: B2
# Conditions: with flig_ecoli fliG
row,Variant,effect of a mutation on the interaction
1,MSHYHEQFLKQNPLAVLGVLRDLHKAAIPLRLSWNGGQLISKLLAITPDKLVLDFGSQAEDNIAVLKAQHITITAETQGADVEFTVEQLQQSEYLQLPAFITVPPPTLWFVQRRRYFRISAPLHPPYFCQTKLADNSTLRFRLYDLSLGGMGALLETAKPAELQEGMRFAQIEVNMGQWGVFHFDAQLISISERKVIDGKNETITTPRLSFRFLNVSPTVERQLQRIIFSLEREAREKADKVRD [K81D],decreasing interaction
2,MSHYHEQFLKQNPLAVLGVLRDLHKAAIPLRLSWNGGQLISKLLAITPDKLVLDFGSQAEDWIAVLKAQHITITAETQGAKVEFTVEQLQQSEYLQLPAFITVPPPTLWFVQRRRYFRISAPLHPPYFCQTKLADNSTLRFRLYDLSLGGMGALLETAKPAELQEGMRFAQIEVNMGQWGVFHFDAQLISISERKVIDGKNETITTPRLSFRFLNVSPTVERQLQRIIFSLEREAREKADKVRD [N62W],decreasing interaction

# Variants of: B3
# Conditions: with ycgr_ecoli ycgR
row,Variant,effect of a mutation on the interaction
1,MSNLTGTDKSVILLMTIGEDRAAEVFKHLSQREVQTLSAAMANVTQISNKQLTDVLAEFEQEAEQFAALNINANDYLRSVLVKALGEERAASLLEDILETRDTASGIETLNFMEPQSAADLIRDEHPQIIATILVHLKRAQAADILALFDERLRHDVMLRIATFGGVQPAALAELTEVLNGLLDGQNLKRSKMGGVRTAAEIINLMKTQQEEAVITAVREFDGELAQKIIDEMFLFENLVDVDDRSIQRLLQEVDSESLLIALKGAEQPLREKFLRNMSQRAADILRDDLANRGWVRLSQVENEQKAILLIVRRLAETGEMVIGSGEDTYV [P295W],decreasing interaction
2,MSNLTGTDKSVILLMTIGEDRAAEVFKHLSQREVQTLSAAMANVTQISNKQLTDVLAEFEQEAEQFAALNINANDYLRSVLVKALGEERAASLLEDILETRDTASGIETLNFMEPQSAADLIRDEHPQIIATILVHLKRAQAADILALFDERLRHDVMLRIATFGGVQPAALAELTEVLNGLLDGQNLKRSKMGGVRTAAEIINLMKTQQEEAVITAVREFDGELAQKIIDEMFLFENLVDVDDRSIQRLLWEVDSESLLIALKGAEQPLREKFLRNMSQRAADILRDDLANRGPVRLSQVENEQKAILLIVRRLAETGEMVIGSGEDTYV [Q252W],decreasing interaction
3,MSNLTGTDKSVILLMTIGEDRAAEVFKHLSQREVQTLSAAMANVTQISNKQLTDVLAEFEQEAEQFAALNINANDYLRSVLVKALGEERAASLLEDILETRDTASGIETLNFMEPQSAADLIRDEHPQIIATILVHLKRAQAADILALFDERLRHDVMLRIATFGGVQPAALAELTEVLNGLLDGQNLKRSKMGGVRTAAEIINLMKTQQEEAVITAVREFDGELAQKIIDEMFLFENLVDVDDRSIQRLLQEVDSESLLIALKGAEQPLREKFLRNMSQRAADILRDDLAWRGPVRLSQVENEQKAILLIVRRLAETGEMVIGSGEDTYV [N292W],decreasing interaction

# Variants of: B4
# Conditions: with ycgr_ecoli ycgR
row,Variant,effect of a mutation on the interaction
1,MGDSILSQAEIDALLNGDSEVKDEPTASVSGESDIRPYDPNTQRRVVRERLQALEIINERFARHFRMGLFNLLRRSPDITVGAIRIQPYHEFARNLPVPTNLNLIHLKPLRGTGLVVFSPSLVFIAVDNLFGGDGRFPTKVEGREFTHTEQRVINRMLKLALEGYSDAWKAINPLRVEYVRSEMQVKFTNITTSPNDIVVNTPFHVEIGNLTGEFNICLPFSMIEPLRELLVNPPLENSRNEDQNWRDNLVRQVQHSQLELVANFADISLRLSQILKLNPGDVLPIEKPDRIIAHVDGVPVLTSQYGTLNGQYALRIEHLINPILNSLNEEQPK [E176R],decreasing interaction
2,MGDSILSQAEIDALLNGDSEVKDEPTASVSGESDIRPYDPNTQRRVVRERLQALEIINERFARHFRMGLFNLLRRSPDITVGAIRIQPYHEFARNLPVPTNLNLIHLKPLRGTGLVVFSPSLVFIAVDNLFGGDGRFPTKVEGREFTHTEQRVINRMLKEALEGYSDAWKAINPLEVEYVRSEMQVKFTNITTSPNDIVVNTPFHVEIGNLTGEFNICLPFSMIEPLRELLVNPPLENSRNEDQNWRDNLVRQVQHSQLELVANFADISLRLSQILKLNPGDVLPIEKPDRIIAHVDGVPVLTSQYGTLNGQYALRIEHLINPILNSLNEEQPK [L160E],disrupting interaction
3,MGDSILSQAEIDALLNGDSEVKDEPTASVSGESDIRPYDPNTQRRVVRERLQALEIINERFARHFRMGLFNLLRRSPDITVGAIRIQPYHEFARNLPVPTNLNLIHLKPLRGTGLVVFSPSLVFIAVDNLFGGDGRFPTKVEGREFTHTEQRVINRMLKLALEGYSRAWKAINPLEVEYVRSEMQVKFTNITTSPNDIVVNTPFHVEIGNLTGEFNICLPFSMIEPLRELLVNPPLENSRNEDQNWRDNLVRQVQHSQLELVANFADISLRLSQILKLNPGDVLPIEKPDRIIAHVDGVPVLTSQYGTLNGQYALRIEHLINPILNSLNEEQPK [D167R],decreasing interaction
4,MGDSILSQAEIDALLNGDSEVKDEPTASVSGESDIRPYDPNTQRRVVRERLQALEIINERFARHFRMGLFNLLRRSPDITVGAIRIQPYHEFARNLPVPTNLNLIHLKPLRGTGLVVFSPSLVFIAVDNLFGGDGRFPTKVEGREFTHTEQRDINRMLKLALEGYSDAWKAINPLEVEYVRSEMQVKFTNITTSPNDIVVNTPFHVEIGNLTGEFNICLPFSMIEPLRELLVNPPLENSRNEDQNWRDNLVRQVQHSQLELVANFADISLRLSQILKLNPGDVLPIEKPDRIIAHVDGVPVLTSQYGTLNGQYALRIEHLINPILNSLNEEQPK [V153D],decreasing interaction
5,MGDSILSQAEIDALLNGDSEVKDEPTASVSGESDIRPYDPNTQRRVVRERLQALEIINERFARHFRMGLFNLLRRSPDITVGAIRIQPYHEFARNLPVPTNLNLIHLKPLRGTGLVVFSPSLVFIAVDNLFGGDGRFPTKVEGREFTHTEQRVIERMLKLALEGYSDAWKAINPLEVEYVRSEMQVKFTNITTSPNDIVVNTPFHVEIGNLTGEFNICLPFSMIEPLRELLVNPPLENSRNEDQNWRDNLVRQVQHSQLELVANFADISLRLSQILKLNPGDVLPIEKPDRIIAHVDGVPVLTSQYGTLNGQYALRIEHLINPILNSLNEEQPK [N155E],decreasing interaction
6,MGDSILSQAEIDALLNGDSEVKDEPTASVSGESDIRPYDPNTQRRVVRERLQALEIINERFARHFRMGLFNLLRRSPDITVGAIRIQPYHEFARNLPVPTNLNLIHLKPLRGTGLVVFSPSLVFIAVDNLFGGDGRFPTKVEGREFTHTEQRVINEMLKLALEGYSDAWKAINPLEVEYVRSEMQVKFTNITTSPNDIVVNTPFHVEIGNLTGEFNICLPFSMIEPLRELLVNPPLENSRNEDQNWRDNLVRQVQHSQLELVANFADISLRLSQILKLNPGDVLPIEKPDRIIAHVDGVPVLTSQYGTLNGQYALRIEHLINPILNSLNEEQPK [R156E],disrupting interaction
